Test results taken from patent US12679878B2, “CRF2 receptor agonists and their use in therapy” (SANOFI, priority 2020, dated 2026).
Starred links: 1 amine or outer side, 2 acyl side, 3 side chain; linkers in the order of their positions; H or OH if unused. Non-standard residues stand in square brackets, D forms with d. Groups on a side chain read outwards from the residue. No end group written: not given here. *: point of attachment. C20 diacid = O=C(O)CCCCCCCCCCCCCCCCCCC(=O)*; C18 diacid = O=C(O)CCCCCCCCCCCCCCCCC(=O)*; γGlu = O=C(O)[C@H](CCC(=O)[*:2])N[*:1]; AEEA = NCCOCCOCC(=O)O; Aib = CC(C)(N)C(=O)O

T1: anti-target CRF1R receptor (UniProt P34998 24-415, limits assumed)
T1 sequence (looked up): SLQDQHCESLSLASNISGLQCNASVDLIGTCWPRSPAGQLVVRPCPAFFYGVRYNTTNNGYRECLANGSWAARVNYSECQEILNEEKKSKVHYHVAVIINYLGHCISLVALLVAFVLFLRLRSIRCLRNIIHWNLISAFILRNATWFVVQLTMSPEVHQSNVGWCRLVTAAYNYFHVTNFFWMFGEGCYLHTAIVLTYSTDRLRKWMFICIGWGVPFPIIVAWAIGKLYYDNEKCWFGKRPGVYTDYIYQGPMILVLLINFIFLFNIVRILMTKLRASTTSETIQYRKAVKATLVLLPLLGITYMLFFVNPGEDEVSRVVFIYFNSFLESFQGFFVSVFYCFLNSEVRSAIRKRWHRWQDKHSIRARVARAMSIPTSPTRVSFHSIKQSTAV

T2: endogenous human CRF2 (NCI-H82 cells) (human, UniProt Q13324 20-411)
T2 sequence (looked up): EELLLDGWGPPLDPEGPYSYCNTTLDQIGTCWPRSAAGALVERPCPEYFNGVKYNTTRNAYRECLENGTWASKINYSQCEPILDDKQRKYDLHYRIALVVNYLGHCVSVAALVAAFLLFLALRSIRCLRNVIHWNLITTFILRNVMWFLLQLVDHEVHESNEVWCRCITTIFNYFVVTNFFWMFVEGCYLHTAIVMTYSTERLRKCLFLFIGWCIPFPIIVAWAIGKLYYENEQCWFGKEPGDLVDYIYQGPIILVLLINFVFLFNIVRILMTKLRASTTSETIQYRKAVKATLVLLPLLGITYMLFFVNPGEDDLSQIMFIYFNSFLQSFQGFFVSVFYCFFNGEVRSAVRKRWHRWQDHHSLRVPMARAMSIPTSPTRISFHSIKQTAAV

B1: peptide of SEQ ID NO: 135 (peptide)
peptide: IVLSLD[dV]PIKLK([AEEA-AEEA-γGlu-C18 diacid])QILLKQERQK[Aib]QRQQAEKNKQILAQV-NH2
modifications: N-terminus assumed
SMILES: CC[C@H](C)[C@H](N)C(=O)N[C@H](C(=O)N[C@@H](CC(C)C)C(=O)N[C@@H](CO)C(=O)N[C@@H](CC(C)C)C(=O)N[C@@H](CC(=O)O)C(=O)N[C@@H](C(=O)N1CCC[C@H]1C(=O)N[C@H](C(=O)N[C@@H](CCCCN)C(=O)N[C@@H](CC(C)C)C(=O)N[C@@H](CCCCNC(=O)COCCOCCNC(=O)COCCOCCNC(=O)CC[C@H](NC(=O)CCCCCCCCCCCCCCCCC(=O)O)C(=O)O)C(=O)N[C@@H](CCC(N)=O)C(=O)N[C@H](C(=O)N[C@@H](CC(C)C)C(=O)N[C@@H](CC(C)C)C(=O)N[C@@H](CCCCN)C(=O)N[C@@H](CCC(N)=O)C(=O)N[C@@H](CCC(=O)O)C(=O)N[C@@H](CCCNC(=N)N)C(=O)N[C@@H](CCC(N)=O)C(=O)N[C@@H](CCCCN)C(=O)NC(C)(C)C(=O)N[C@@H](CCC(N)=O)C(=O)N[C@@H](CCCNC(=N)N)C(=O)N[C@@H](CCC(N)=O)C(=O)N[C@@H](CCC(N)=O)C(=O)N[C@@H](C)C(=O)N[C@@H](CCC(=O)O)C(=O)N[C@@H](CCCCN)C(=O)N[C@@H](CC(N)=O)C(=O)N[C@@H](CCCCN)C(=O)N[C@@H](CCC(N)=O)C(=O)N[C@H](C(=O)N[C@@H](CC(C)C)C(=O)N[C@@H](C)C(=O)N[C@@H](CCC(N)=O)C(=O)N[C@H](C(N)=O)C(C)C)[C@@H](C)CC)[C@@H](C)CC)[C@@H](C)CC)C(C)C)C(C)C
B2: peptide of SEQ ID NO: 137 (peptide)
peptide: IVLSLD[dV]PIKLK([AEEA-AEEA-γGlu-C18 diacid])QILLKQERQKKQREQAEKNKQILEQV-NH2
modifications: N-terminus assumed
SMILES: CC[C@H](C)[C@H](N)C(=O)N[C@H](C(=O)N[C@@H](CC(C)C)C(=O)N[C@@H](CO)C(=O)N[C@@H](CC(C)C)C(=O)N[C@@H](CC(=O)O)C(=O)N[C@@H](C(=O)N1CCC[C@H]1C(=O)N[C@H](C(=O)N[C@@H](CCCCN)C(=O)N[C@@H](CC(C)C)C(=O)N[C@@H](CCCCNC(=O)COCCOCCNC(=O)COCCOCCNC(=O)CC[C@H](NC(=O)CCCCCCCCCCCCCCCCC(=O)O)C(=O)O)C(=O)N[C@@H](CCC(N)=O)C(=O)N[C@H](C(=O)N[C@@H](CC(C)C)C(=O)N[C@@H](CC(C)C)C(=O)N[C@@H](CCCCN)C(=O)N[C@@H](CCC(N)=O)C(=O)N[C@@H](CCC(=O)O)C(=O)N[C@@H](CCCNC(=N)N)C(=O)N[C@@H](CCC(N)=O)C(=O)N[C@@H](CCCCN)C(=O)N[C@@H](CCCCN)C(=O)N[C@@H](CCC(N)=O)C(=O)N[C@@H](CCCNC(=N)N)C(=O)N[C@@H](CCC(=O)O)C(=O)N[C@@H](CCC(N)=O)C(=O)N[C@@H](C)C(=O)N[C@@H](CCC(=O)O)C(=O)N[C@@H](CCCCN)C(=O)N[C@@H](CC(N)=O)C(=O)N[C@@H](CCCCN)C(=O)N[C@@H](CCC(N)=O)C(=O)N[C@H](C(=O)N[C@@H](CC(C)C)C(=O)N[C@@H](CCC(=O)O)C(=O)N[C@@H](CCC(N)=O)C(=O)N[C@H](C(N)=O)C(C)C)[C@@H](C)CC)[C@@H](C)CC)[C@@H](C)CC)C(C)C)C(C)C
B3: peptide of SEQ ID NO: 130 (peptide)
peptide: IVLSLD[dV]PIKLK([AEEA-AEEA-γGlu-C18 diacid])QILLKQERQK[Aib]QREQAEKNKQILAQV-NH2
modifications: N-terminus assumed
SMILES: CC[C@H](C)[C@H](N)C(=O)N[C@H](C(=O)N[C@@H](CC(C)C)C(=O)N[C@@H](CO)C(=O)N[C@@H](CC(C)C)C(=O)N[C@@H](CC(=O)O)C(=O)N[C@@H](C(=O)N1CCC[C@H]1C(=O)N[C@H](C(=O)N[C@@H](CCCCN)C(=O)N[C@@H](CC(C)C)C(=O)N[C@@H](CCCCNC(=O)COCCOCCNC(=O)COCCOCCNC(=O)CC[C@H](NC(=O)CCCCCCCCCCCCCCCCC(=O)O)C(=O)O)C(=O)N[C@@H](CCC(N)=O)C(=O)N[C@H](C(=O)N[C@@H](CC(C)C)C(=O)N[C@@H](CC(C)C)C(=O)N[C@@H](CCCCN)C(=O)N[C@@H](CCC(N)=O)C(=O)N[C@@H](CCC(=O)O)C(=O)N[C@@H](CCCNC(=N)N)C(=O)N[C@@H](CCC(N)=O)C(=O)N[C@@H](CCCCN)C(=O)NC(C)(C)C(=O)N[C@@H](CCC(N)=O)C(=O)N[C@@H](CCCNC(=N)N)C(=O)N[C@@H](CCC(=O)O)C(=O)N[C@@H](CCC(N)=O)C(=O)N[C@@H](C)C(=O)N[C@@H](CCC(=O)O)C(=O)N[C@@H](CCCCN)C(=O)N[C@@H](CC(N)=O)C(=O)N[C@@H](CCCCN)C(=O)N[C@@H](CCC(N)=O)C(=O)N[C@H](C(=O)N[C@@H](CC(C)C)C(=O)N[C@@H](C)C(=O)N[C@@H](CCC(N)=O)C(=O)N[C@H](C(N)=O)C(C)C)[C@@H](C)CC)[C@@H](C)CC)[C@@H](C)CC)C(C)C)C(C)C
B4: peptide of SEQ ID NO: 81 (peptide)
peptide: IVLSLDVPIKLK([AEEA-AEEA-γGlu-C20 diacid])QILLEQEKQK[Aib]QREQAETNKQILAQV-NH2
modifications: N-terminus assumed
SMILES: CC[C@H](C)[C@H](N)C(=O)N[C@H](C(=O)N[C@@H](CC(C)C)C(=O)N[C@@H](CO)C(=O)N[C@@H](CC(C)C)C(=O)N[C@@H](CC(=O)O)C(=O)N[C@H](C(=O)N1CCC[C@H]1C(=O)N[C@H](C(=O)N[C@@H](CCCCN)C(=O)N[C@@H](CC(C)C)C(=O)N[C@@H](CCCCNC(=O)COCCOCCNC(=O)COCCOCCNC(=O)CC[C@H](NC(=O)CCCCCCCCCCCCCCCCCCC(=O)O)C(=O)O)C(=O)N[C@@H](CCC(N)=O)C(=O)N[C@H](C(=O)N[C@@H](CC(C)C)C(=O)N[C@@H](CC(C)C)C(=O)N[C@@H](CCC(=O)O)C(=O)N[C@@H](CCC(N)=O)C(=O)N[C@@H](CCC(=O)O)C(=O)N[C@@H](CCCCN)C(=O)N[C@@H](CCC(N)=O)C(=O)N[C@@H](CCCCN)C(=O)NC(C)(C)C(=O)N[C@@H](CCC(N)=O)C(=O)N[C@@H](CCCNC(=N)N)C(=O)N[C@@H](CCC(=O)O)C(=O)N[C@@H](CCC(N)=O)C(=O)N[C@@H](C)C(=O)N[C@@H](CCC(=O)O)C(=O)N[C@H](C(=O)N[C@@H](CC(N)=O)C(=O)N[C@@H](CCCCN)C(=O)N[C@@H](CCC(N)=O)C(=O)N[C@H](C(=O)N[C@@H](CC(C)C)C(=O)N[C@@H](C)C(=O)N[C@@H](CCC(N)=O)C(=O)N[C@H](C(N)=O)C(C)C)[C@@H](C)CC)[C@@H](C)O)[C@@H](C)CC)[C@@H](C)CC)C(C)C)C(C)C
B5: peptide of SEQ ID NO: 101 (peptide)
peptide: IVLSLDVPIKLK([AEEA-AEEA-γGlu-C18 diacid])KILLKQERQKK[Aib]REQAETNKQILERV-NH2
modifications: N-terminus assumed
SMILES: CC[C@H](C)[C@H](N)C(=O)N[C@H](C(=O)N[C@@H](CC(C)C)C(=O)N[C@@H](CO)C(=O)N[C@@H](CC(C)C)C(=O)N[C@@H](CC(=O)O)C(=O)N[C@H](C(=O)N1CCC[C@H]1C(=O)N[C@H](C(=O)N[C@@H](CCCCN)C(=O)N[C@@H](CC(C)C)C(=O)N[C@@H](CCCCNC(=O)COCCOCCNC(=O)COCCOCCNC(=O)CC[C@H](NC(=O)CCCCCCCCCCCCCCCCC(=O)O)C(=O)O)C(=O)N[C@@H](CCCCN)C(=O)N[C@H](C(=O)N[C@@H](CC(C)C)C(=O)N[C@@H](CC(C)C)C(=O)N[C@@H](CCCCN)C(=O)N[C@@H](CCC(N)=O)C(=O)N[C@@H](CCC(=O)O)C(=O)N[C@@H](CCCNC(=N)N)C(=O)N[C@@H](CCC(N)=O)C(=O)N[C@@H](CCCCN)C(=O)N[C@@H](CCCCN)C(=O)NC(C)(C)C(=O)N[C@@H](CCCNC(=N)N)C(=O)N[C@@H](CCC(=O)O)C(=O)N[C@@H](CCC(N)=O)C(=O)N[C@@H](C)C(=O)N[C@@H](CCC(=O)O)C(=O)N[C@H](C(=O)N[C@@H](CC(N)=O)C(=O)N[C@@H](CCCCN)C(=O)N[C@@H](CCC(N)=O)C(=O)N[C@H](C(=O)N[C@@H](CC(C)C)C(=O)N[C@@H](CCC(=O)O)C(=O)N[C@@H](CCCNC(=N)N)C(=O)N[C@H](C(N)=O)C(C)C)[C@@H](C)CC)[C@@H](C)O)[C@@H](C)CC)[C@@H](C)CC)C(C)C)C(C)C

These binders were tested against rat CRF2R α receptor (rat, UniProt P47866 20-411) (assay: cell-based or functional assay).

Row | EC50 [nM], 0% HSA (cAMP, A7R5 cells) [nM] | Binder
1 | 0.13 | B1
2 | 0.14 | B2
3 | 0.13 | B3
4 | 0.94 | B4
5 | 1.02 | B5

These binders were tested against T1, anti-target CRF1R receptor (assay: cell-based or functional assay).

Row | EC50[nM] 0% HSA (cAMP, CRF1R-overexpression CHO cells) [nM] | Emax (%) (cAMP, CRF1R-overexpression CHO cells) | Binder
6 | > 1000 | 28.4 | B1
7 | > 1000 | 22.5 | B2
8 | > 1000 | 20.3 | B3
9 | > 1000 | 23.3 | B4
10 | > 1000 | -0.34 | B5

The binders below were run against T2, endogenous human CRF2 (NCI-H82 cells) (assay: cell-based or functional assay).

Row | EC50 [nM] (cAMP, NCI-H82 cells) | Binder
11 | 110 | B1
12 | 120 | B2
13 | 4.3 | B3
14 | 110 | B4
15 | 4.1 | B5
